Data as given in paper PMC7438732, “The H^+-Translocating Inorganic Pyrophosphatase From Arabidopsis thaliana Is More Sensitive to Sodium Than Its Na^+-Translocating Counterpart From Methanosarcina mazei” (Frontiers in Plant Science, 2020).

Substrate: O=P(O)(O)OP(=O)(O)O
Assay: cells, lysate or membranes
Conditions: 0 mM added NaCl, 100 mM KCl, pH 7.2, 30 °C, Mg2PPi substrate without excess Mg2+, Na+ from Na4PPi present

B1: AVP1 (Arabidopsis thaliana) (protein)
chain: MVAPALLPELWTEILVPICAVIGIAFSLFQWYVVSRVKLTSDLGASSSGGANNGKNGYGDYLIEEEEGVNDQSVVAKCAEIQTAISEGATSFLFTEYKYVGVFMIFFAAVIFVFLGSVEGFSTDNKPCTYDTTRTCKPALATAAFSTIAFVLGAVTSVLSGFLGMKIATYANARTTLEARKGVGKAFIVAFRSGAVMGFLLAASGLLVLYITINVFKIYYGDDWEGLFEAITGYGLGGSSMALFGRVGGGIYTKAADVGADLVGKIERNIPEDDPRNPAVIADNVGDNVGDIAGMGSDLFGSYAEASCAALVVASISSFGINHDFTAMCYPLLISSMGILVCLITTLFATDFFEIKLVKEIEPALKNQLIISTVIMTVGIAIVSWVGLPTSFTIFNFGTQKVVKNWQLFLCVCVGLWAGLIIGFVTEYYTSNAYSPVQDVADSCRTGAATNVIFGLALGYKSVIIPIFAIAISIFVSFSFAAMYGVAVAALGMLSTIATGLAIDAYGPISDNAGGIAEMAGMSHRIRERTDALDAAGNTTAAIGKGFAIGSAALVSLALFGAFVSRAGIHTVDVLTPKVIIGLLVGAMLPYWFSAMTMKSVGSAALKMVEEVRRQFNTIPGLMEGTAKPDYATCVKISTDASIKEMIPPGCLVMLTPLIVGFFFGVETLSGVLAGSLVSGVQIAISASNTGGAWDNAKKYIEAGVSEHAKSLGPKGSEPHKAAVIGDTIGDPLKDTSGPSLNILIKLMAVESLVFAPFFATHGGILFKYF
Protein B1 has a K0.5 of 0.14 ± 0.08 mM.
